From the DeepSol protein solubility set

Test: soluble on expression in E. coli; label from the status in PepcDB or PDB records

Sequence	soluble on expression in E. coli
MGSDKIHHHHHHMRRKIPSTAALICFEAAARNESFTKAAQELALTQGAVCRQIGGLEAFLNVELFRRSRRGVRLTEAGLSYSRQVAAQLDAVERDTLSVMRQQGANVIELAVVPTFGTQWLLPRLKDFQQRHPEVTVNLTNRTRPFLFADTTFDAAIYFGDADWSGTQSHQLMGENPVPVCSPALLNGQGMLEARHIAQLPLLQQSTRPYAWRQWFGSVGMNVERDMTGPRYELFSMLAQAAMHDMGIALIPPFLIQRELEEGRLVVANRHALSSDKAYYLMIPERKVESASLRAFRDWLVSQAQAYINSSGTNAAN	not soluble
MGSDKIHHHHHHMRTICVFNNKGGVGKTTLLCNLAAYFSIKRGKKVLVVDADPQCNATAYMIKEKVLDKLYASSSSDSATINSLIASLKKSKGYGIPPVLRSDGFNVDIVPGDPKFSLAEDFLAKDWLDAIAGDERGLRTTFFFRNLISWARSDGYDLVFFDMGPSLGAINRTVLLSSDHFILPMSSDIFSLRGLQNIEVALKNWTKGIERGLVSFKEDQGTSFKVESGDALSELGVSFLGYVTQQYTAKTVDGKKQPVSAYEKIIKKIDPLVSKHLILPLNKGQKLNYKLGEIPYFQSLVPMAQTATVPIFALKKADGVVGAHFDKVRQFDSVISGIVDKIEANMNSKGN	not soluble
MGSDKIHHHHHHMRTNKVVWSEGLFLRPQLFQQQERYLEYYAHKRAATITPFFWGFAQYEIDREALSYGKLVLRSGKGVLPDGTPFDIPGHAELPEPLTITPDHLGKLIYLAVPLRLDNSDETIFDEYDMSSLARFYAYEADLSDTNAIRQGPKPVQLSRLRLKLVSESEMTESWIGLPLAKVRAIQPDGSVLLHLEDYIPPVTGYAASSLLSEWLTHLNGLVKMRADMLAKRLSNSDGKASASAEIVDYLLLQIFNKYEPSLDHLRNIPELPPIVLYQELAKFAGELSTFIRTKTRRPRPAPGYDHGKLYPSIRPLVDDVHELLNQILVRAGQMIPLEPKGNGVWSASVLPNELRSFSNLVLAVHAQLPMDVLQHQFSVQTKISAPQQLHELVRSHLPGLELQRLPVPPRQIPYSAGYVYFELMKSGPFWDKVSNAGAIALHVAGDFPALKMELWGIRDS	not soluble
MGSDKIHHHHHHMRTRDMLPILETLDESGIYSLEVWGGATFDACHRFLNENPWERLREIRKRVKNAKLQMLLRGQNLVGYRHYPDDIVEKFVQKTIENGLDVFRIFDALNDVRNLISSIKAAKKYNADHIQGTICYTISPVHTVEKYVEIANELAALEVDSICLKDMAGMLSPKMAYELVKALKKEVGLPINVHSHYTSGMASMALLKGVEAGAEMIDTCMSPLSSGTSHPPTESMVYALNELGYDTGVKLDILLEAREYFMKIREKYSGYLNPLSTIPDTRVLVYQIPGGMFSNLIAQLQEQNALDRLQEVLEEVPRVREDLGYPPLVTPTSQIVGVQAVINVLVGERYKVVTRETKDLVKGMYGRTPAPIKPEIVKKILGDEKPIDCRPADLLEPEFEKRKQELIEAGIENPSDEDVLLYALFPQTGLKFLKGEMVEEPFPVAGGKIEGSFEVEIDGQKYVVKVAPEK	not soluble
MGSDKIHHHHHHMRVFVARQPIFNRKEQVVAYELLYRESEENVYSAKDGDQATTDLVINSFLNIGIEKLTEGKRCFVNFTESLMFSNLPTSFNPKQLVIEILEDIPITPALISRCKELKKMGYMLALDDFYAINPQDEDLLEKLMSYIDILKIDFLKTTRMERRTILQTYGCRGLIFLAEKVETRKEYKQAVQDGFQLFQGYFFSEPRIISGHDLSTHFYSYYELLNELSKEQPNIKRVTEYIERDLSLSYQILKFLNSSHSRLSQKIESIQQAIMLLGFNEIKRWIYILSFKDLSRKGHSSKHEIIKISLIRAKLCELLARKTSRPQPASYMLIGMFSLIDTLLHREIEEIVQELPLKDEVGQALLGHQNDYYQMLELVKLIESNNWDTCSELGNQLDKEEAYECYLEALEWCHNLMDAK	not soluble
MGSDKIHHHHHHMRVGLTLYGSLDEQSGGFRYDRKLVEGLRAAGDTVECIQLPWRDYHRGLLDNGSRKLRQRLDVDVDVMLQDELAHPSLVRTNRALSYPIVSIVHHLRASEPRRLAPLYRAVERRYLGTVQAVVCNSATTRNVVTNLGVDPEDTVVAPPAGDQFDPDIDRATIERRATTEPLQVVFVGNVSPRKGLDTLVDGVAAAAVDIDLTVVGRHVDAAHVTSVQERVREHDLADRVQFAGRLPDGELAKTLRSSHVLAVPSRYEGFGIVYLEGMSFGLPALATRAGGAADIVTDDETGVLVDPDDSAAVARELERFATDRDRLAEMGWAARRNYETHPDWEETVGRVRDLLSDIVQPTEVPA	not soluble
MGSDKIHHHHHHMRVKYPSIPHLPWSPGLQNDDRRITSLSGFIGKEVVVTEKLDGENTSLYRDDLHARSLDMRPHPSRTWVKAERGRVAHDIPLGWRFCGENVYAVHSLKYDDLDGYFYLFSVWDDLNVSRPWDEVRGWAERLSLPTPRELYRGPWDEAALQALDPDPERMEGYVVRVTAAIPYADFGRKVAKWVRRGHVQTDQHWLSQPVEPNGLKRQEQS	not soluble
MGSDKIHHHHHHMSADKYEVIIIGAGLAGLSAAYKLAKAGMEVVVVERGDYPGSKNLSGGVLYSRILDQLIPDFWEEAPIERYITNYLTTLMTPTDYVNIEYKDQELAKPPYNAVTVLRAKFDRWLAEKAEEAGAMIVTGVKVDKVLKEGGRITGITTGDEEMLADVVIAADGINSFIAQEAGLRGEIEPAHLAVGAKALIELPQQAIEERFRLEGNEGTAYAMLGDATHGVAGGGFFYTNRESLSIGVVMRLDDLVKEKVKPFEVLDDLLRHPLVAPLVKDGTMTEYGAHLTAEGGVHMVPSQLHTDGMLIVGDAAGFTINSGLVIRGMDLAIGSGMAAAEAVLEAKERGDYSAAALSSYQRKLDEGFIMKDLKLYAKAVDFMETDRLYKNYAPLANHLFGRIYNHDLSPKEHLWKSVLGSVQESGISWLDLARDGIKGVRAL	not soluble
MGSDKIHHHHHHMSAGLTGIRVAVIGGDDREIYMIPELQKLGAYIVGVGFEKAAPIQGVTLLSSPLEAVEKADVLLFPMYGTDERGDVKAKYSETPIVLNKELLKAVSPKVPLFIGWARPALKSAAEMLGIQIVETANLDQLAILNSIPSAEGAIQMAMEASPITIHGSESFVLGLGRCGWTLARTLKGMGAHVTGVARKPADLARALEMGLEAVHFADLDEKIGKAELIFNTVPHLILDKVMLEQVNHEAVIIDIASLPGGTDFEYAKAKGIKAMLAPGLPGKVAPKAAGKILAQVYPQLILRHLTTKNASLKF	not soluble
MGSDKIHHHHHHMSAKQYDTLNNAEITSLAHRALACYPAALQGEVRLLCRSENATFLVTSAGKRYALRLHRSHYHQKAEIESELLWLDALRETGIVVPEAVRDASGERVQSLGLSDGSCRYAVLFHWIDGEMPTTSIDPRTFQQLGEITAHLHQHSRQWQKPDGFQRIVWDHHTMVSAQSHWGSWRDAPNLSRDEHGIVEEAIERMGTEMAEFGKAPHRYGLIHADLRLTNLLLHRGETRVIDFDDCGMGWYLHDLAAAISFVEHHPRAAEWVENWLCGYERVAHVSDEELALLPTLLIQRRIQLTAWVGSHAETEMAQSLGPDWASHSVRLCRRYLETRDLPLGVA	not soluble
MGSDKIHHHHHHMSAPQAMKVLVLCGPESSGKSWLSGVIQAHFGGLVVGEYVRHFIDQQCRDTCYADIPAIARGQLAWEDRAREQAPPLLILDTHLLSNMLWSHALFGDCPTWLEEALLARRYDLHLLLSPQGVDWIADGQRCQPDLSDRQRFFDDSQAWLRRHNQPHQILDGNWPQRQLLALQSVAKLLNSDAPSCPTEC	not soluble
MGSDKIHHHHHHMSDALLNAGRQTLMLELQEASRLPERLGDDFVRAANIIIHCEGKVIVSGIGKSGHIGKKIAATLASTGTPAFFVHPAEALHGDLGMIESRDVMLFISYSGGAKELDLIIPRLEDKSVALLAMTGKLHSPLGRAAKAVLDISVEREACPMHLAPTSSTVNTLMMGDALAMAVMQARGFNEEDFARSHPAGALGARLLNNVHHLMRQGDAIPQVMLATSVMDAMLELSRTGLGLVAVCDEQHVVKGVFTDGDLRRWLVGGGALTTPVSEAMTPNGITLQAQSRAIDAKELLMKRKITAAPVVDENGKLTGAINLQDFYQAGII	not soluble
